This note sets out measurements from patent US20260049134A1 (UNIVERSITY OF FLORIDA RESEARCH FOUNDATION, published 2026).

T1: SLAMF7
T1 construct: coated protein in the ELISA; also called SLAMF7-StrepTag
T1 chain: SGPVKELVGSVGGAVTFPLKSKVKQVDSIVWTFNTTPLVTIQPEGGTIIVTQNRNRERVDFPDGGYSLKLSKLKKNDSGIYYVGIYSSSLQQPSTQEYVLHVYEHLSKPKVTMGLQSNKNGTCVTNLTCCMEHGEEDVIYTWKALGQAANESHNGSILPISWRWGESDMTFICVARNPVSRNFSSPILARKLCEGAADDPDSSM

T2: CADM1-His (Acro Biosystems) (human, UniProt Q9BY67 45-374)
T2 construct: Bought; also called CADM1/IGSF4A; not shown: His tag of the bought protein
T2 sequence: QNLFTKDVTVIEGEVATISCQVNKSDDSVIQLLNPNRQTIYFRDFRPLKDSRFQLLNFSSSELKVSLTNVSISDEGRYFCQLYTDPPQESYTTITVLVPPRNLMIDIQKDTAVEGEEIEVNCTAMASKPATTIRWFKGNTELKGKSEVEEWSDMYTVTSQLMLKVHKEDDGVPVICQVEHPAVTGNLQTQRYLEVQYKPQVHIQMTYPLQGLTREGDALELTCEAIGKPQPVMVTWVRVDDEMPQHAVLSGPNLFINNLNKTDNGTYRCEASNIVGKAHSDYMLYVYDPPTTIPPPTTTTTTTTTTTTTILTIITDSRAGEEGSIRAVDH

T3: SELL (L-Selectin)
T3 construct: coated protein in the ELISA; also called SELL-Fc-His (R&D Systems)
T3 chain: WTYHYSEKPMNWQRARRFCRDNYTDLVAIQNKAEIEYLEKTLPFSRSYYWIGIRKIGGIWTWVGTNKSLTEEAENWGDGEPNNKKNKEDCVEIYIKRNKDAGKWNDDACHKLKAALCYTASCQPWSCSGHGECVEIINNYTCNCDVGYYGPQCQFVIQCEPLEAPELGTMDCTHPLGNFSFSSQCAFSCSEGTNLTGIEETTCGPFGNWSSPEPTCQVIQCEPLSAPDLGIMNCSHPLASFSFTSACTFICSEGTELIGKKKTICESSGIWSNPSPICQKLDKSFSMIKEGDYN

B1: HW-42 chimeric rabbit-human IgG1 LA/LA/PG (antibody, V domains shown)
VH: QSVKESEGGLFKPADTLTLTCTVSGFSLSSNEISWVRQAPGEGLEYIGIIDTGGRAYYAVWARSRSTITRNTNLNTVTLKMTSLTAADTATYFCARGGVDTEWYAFSSWGPGTLVTVPS
VL: SFVLTQPASVQVNLGQTVSLTCTADTLSRRYASWYQQKPGQAPVLLIFRDTSRPSGVPDRFSGSSSGDTATLTISGAQAGDEADYYCATSDGSGSNYQYVFGGGTQLTVTG
notes: Fc-silenced (L234A/L235A/P329G) IgG1, lambda; Alexa Fluor 647-labeled in single-step flow cytometry; Cluster C-1
B2: HW-25 chimeric rabbit-human IgG1 LA/LA/PG (antibody, V domains shown)
VH: QSLEESGGRLVTPGTPLTLTCTVSGFSLSSYAMGWVRQAPGKGLEWIGIIDSRGSTYYATWAKGRFTISKTSTTVDLKITSPTTEDTATYFCAREDSYYYDSFNLWGPGTLVTVSS
VL: B1 VL with F48Y, D68N, N96S, Y99C
notes: as for B1
B3: HW-70 chimeric rabbit-human IgG1 LA/LA/PG (antibody, V domains shown)
VH: QSLEESGGRLVTPGTPLTLTCTVSGFSLSSNAMSWVRQAPGKGLEWIGTIDGYGYTYYASWAKGRFTVSKTSTTVDLKITSPTTEDTATYFCAREIYLGSNFWGPGTLVTISS
VL: B1 VL with F48Y, D68N, S90A, N96S, Y99F
notes: as for B1
B4: TH9-0022 (antibody, human IgG1, kappa, L234A L235A, V domains shown)
VH: QSLEESGGRLVTPGTPLTLTCTVSGFSLSSYAMNWVRQAPGKGLEWIGIINSYGSTYYASWAKGRFTISKTSTTVDLKITSPTTEDTATYFCARVTYDSYGYGYAPYGMDLWGPGTLVTVSS
VL: LVMTQTPSSTSNAVGGTVTIKCQASQSIGNVLAWYQQKPGQPPKLLIYAASTLASGVPSRVGGSRSGTEYTLTISGVQREDAATYYCLGSDSDSDIAFGGGTELEILR
notes: also called TH9-022; negative control
B5: HW-1 chimeric rabbit-human IgG1 LA/LA/PG (antibody, V domains shown)
VH: QSLEESGGGLFKPTDTLTLTCTASGFSLGSSYAISWVRQAPGKELEWIGTIDSGRAYYARWAKSRSTITRNTNENTVTLKMTSLTAADTATYFCARDLIPTYSQDIWGPGTLVTISS
VL: B1 VL with F48Y, D68N, S95N, N96S, G111S
notes: Fc-silenced (L234A/L235A/P329G) IgG1, lambda; Alexa Fluor 647-labeled in single-step flow cytometry; Prototype of cluster C-1
B6: HW-17 chimeric rabbit-human IgG1 LA/LA/PG (antibody, V domains shown)
VH: QSLGESRGRLVTPDETLTLTCTVSGIDLSSNAMSWVRQAPGEGLEWIGTINTGGRAYYASWAKGRFTISRTSTTVDLKMTSLTTEDTATYFCARERYSDGRAYDIWGPGTLVTISS
VL: B1 VL with F48Y, R49T, T51S, S52N, V57I, D68N, S90D, N96I
notes: as for B1
B7: HW-113 chimeric rabbit-human IgG1 LA/LA/PG (antibody, V domains shown)
VH: QKQLVESGGGLVQPGGSLTLTCTVSGFSLNKYYMGWFRQAPGKGLEWIGVISRSGDTYYSSWAKGRFTISKASTTVDLRITSPTTEDTATYFCARDASSPGFHGDRLDLWGQGTLVTVSS
VL: B1 VL with R30S, F48Y, D68N, S93I, Q98L, Y99W
notes: Fc-silenced (L234A/L235A/P329G) IgG1, lambda; Alexa Fluor 647-labeled in single-step flow cytometry
B8: HW-101 chimeric rabbit-human IgG1 LA/LA/PG (antibody, V domains shown)
VH: QEQLVESGGRLVTPGTPLTLTCKASGFSLGKYDMSWVRQAPGKGLEWIGTIYAGSGSTWYASWAKGRFTISKTSTTVDLKMTSLTTEDTATYFCARDFLGVNSIWGPGTLVTISS
VL: B1 VL with R30S, G40D, F48H, S65N, D68N, Y97F, Q98H, Y99F
notes: Fc-silenced (L234A/L235A/P329G) IgG1, lambda; Alexa Fluor 647-labeled in single-step flow cytometry; Cluster C-97
B9: HW-97 chimeric rabbit-human IgG1 LA/LA/PG (antibody, V domains shown)
VH: QKQLVESGGRLVTPGTPLTLTCTVTGIDLSSHGMSWVRQAPGKGLEWIGVIYPSGSTWYASWARGRFTISKTSTTVDLKMTSLTTEDTATHFCARGDVGGADNNIWGPGTLVTVSS
VL: B1 VL with N13D, D25E, R30S, F48Y, D68N, N96S
notes: Fc-silenced (L234A/L235A/P329G) IgG1, lambda; Alexa Fluor 647-labeled in single-step flow cytometry; Prototype of cluster C-97

Substitutions are numbered along the chain they refer to. Names may count otherwise.

T5 sequence (P23470 20-1445 limits assumed): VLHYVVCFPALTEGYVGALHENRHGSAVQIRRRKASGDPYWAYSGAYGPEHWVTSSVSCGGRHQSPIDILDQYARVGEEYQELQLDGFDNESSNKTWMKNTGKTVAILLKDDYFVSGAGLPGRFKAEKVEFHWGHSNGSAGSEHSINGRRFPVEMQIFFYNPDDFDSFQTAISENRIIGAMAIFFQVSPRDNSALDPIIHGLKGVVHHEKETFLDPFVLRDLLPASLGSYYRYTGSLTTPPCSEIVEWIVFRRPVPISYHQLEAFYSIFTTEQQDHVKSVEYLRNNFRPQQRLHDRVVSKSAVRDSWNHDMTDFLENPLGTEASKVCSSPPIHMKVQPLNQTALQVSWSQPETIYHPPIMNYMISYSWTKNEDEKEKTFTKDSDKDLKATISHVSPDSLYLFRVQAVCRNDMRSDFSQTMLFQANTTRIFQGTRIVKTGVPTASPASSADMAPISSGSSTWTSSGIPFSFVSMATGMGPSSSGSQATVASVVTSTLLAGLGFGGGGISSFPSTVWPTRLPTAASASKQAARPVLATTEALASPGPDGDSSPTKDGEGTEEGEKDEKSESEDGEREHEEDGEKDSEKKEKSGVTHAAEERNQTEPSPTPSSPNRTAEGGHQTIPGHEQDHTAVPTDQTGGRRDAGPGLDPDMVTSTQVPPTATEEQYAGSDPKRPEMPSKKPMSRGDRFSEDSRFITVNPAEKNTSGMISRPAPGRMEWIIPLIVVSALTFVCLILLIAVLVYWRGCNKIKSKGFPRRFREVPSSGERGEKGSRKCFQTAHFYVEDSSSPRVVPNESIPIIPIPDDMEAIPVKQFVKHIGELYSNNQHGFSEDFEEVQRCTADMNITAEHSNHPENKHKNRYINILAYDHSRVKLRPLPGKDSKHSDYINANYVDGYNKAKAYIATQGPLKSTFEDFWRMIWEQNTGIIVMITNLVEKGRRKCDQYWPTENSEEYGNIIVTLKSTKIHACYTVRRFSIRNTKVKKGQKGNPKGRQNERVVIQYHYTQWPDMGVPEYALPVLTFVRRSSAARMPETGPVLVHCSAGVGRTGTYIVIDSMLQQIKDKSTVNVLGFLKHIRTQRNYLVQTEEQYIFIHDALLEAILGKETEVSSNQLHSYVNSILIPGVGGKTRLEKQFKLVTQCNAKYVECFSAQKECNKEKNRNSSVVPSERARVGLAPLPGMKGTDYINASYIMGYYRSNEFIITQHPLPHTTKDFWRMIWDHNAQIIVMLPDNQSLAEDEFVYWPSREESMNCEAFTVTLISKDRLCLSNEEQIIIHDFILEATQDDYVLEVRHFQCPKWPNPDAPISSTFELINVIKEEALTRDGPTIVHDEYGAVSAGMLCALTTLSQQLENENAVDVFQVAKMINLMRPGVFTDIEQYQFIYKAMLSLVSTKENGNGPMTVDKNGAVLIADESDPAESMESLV

For the first experiment, the target named is T4, ICAM1-Fc (R&D Systems) (human, UniProt P05362 28-480).
T4 construct: Bought; also called ICAM-1/CD54; not shown: Fc of the bought fusion protein
T4 sequence (P05362 28-480): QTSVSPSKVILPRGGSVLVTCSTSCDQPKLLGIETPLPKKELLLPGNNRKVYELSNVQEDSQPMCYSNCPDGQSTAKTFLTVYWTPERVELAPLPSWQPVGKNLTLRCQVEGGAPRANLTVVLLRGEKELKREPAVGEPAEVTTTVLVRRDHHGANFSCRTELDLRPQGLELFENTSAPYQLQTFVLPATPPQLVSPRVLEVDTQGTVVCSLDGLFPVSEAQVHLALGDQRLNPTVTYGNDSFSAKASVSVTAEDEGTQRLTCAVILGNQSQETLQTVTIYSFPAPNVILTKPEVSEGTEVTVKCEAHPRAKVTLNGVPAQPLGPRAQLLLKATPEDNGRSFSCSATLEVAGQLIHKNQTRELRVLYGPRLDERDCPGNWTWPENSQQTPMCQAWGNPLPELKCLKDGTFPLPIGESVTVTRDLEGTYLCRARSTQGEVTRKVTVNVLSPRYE
The experiment is described as follows: ELISA on coated ICAM1-Fc. The protocol: (§1) Recombinant purified ECDs (50-150 ng) of each putative target protein were coated, incubated with 150 ng of the indicated primary antibody, and binding was detected using a peroxidase-conjugated anti-human Fab secondary antibody. Heatmap represents averages of technical triplicates. (8B) Target validation via siRNA knockdown. H929 cells were transfected with siRNA pools targeting the putative antibody targets ICAM1, CADM1, and PTPRG. Cells were then subjected to cognate IgG binding analysis via flow cytometry. (NT, non-targeting siRNA).
(§2) ELISA ELISA was conducted as described previously. Briefly, 50-150 ng of antigen was coated overnight in half-area 96-well plates at 4° C., blocked with 3% BSA at 37° C. for 1 h, and 150 ng of chimeric rabbit/human IgG1 was added, incubating for 2 h at 37° C. […] After incubating at 37° C. for 15 min-1 h (depending on intensity of controls), data were acquired using a SpectraMax M5 plate reader (Molecular Devices).
In the case of B1, the binding result was “no binding (tested: 150 ng IgG1 per well)”.

B2: the binding result is “no binding (tested: 150 ng IgG1 per well)”.

For the molecule B3, the binding result is listed as “no binding (tested: 150 ng IgG1 per well)”.

In the case of B4, the binding result is recorded as “no binding (tested: 150 ng IgG1 per well)”.

A further experiment concerns the target T5, PTPRG, endogenous in H929 multiple myeloma cells (human, UniProt P23470 20-1445).
T5 construct: Native protein on H929 cells (flow cytometry, siRNA knockdown) and in H929 lysates (IP/MS); also called phosphatase receptor type γ
Kind of experiment: flow cytometry, H929 + vehicle; None 513. On the technique in general: In flow cytometry, cells or beads pass a laser one at a time.
For the molecule B1, the “mAb binding (MFI)” value amounted to 8320.

In the case of B2, the “mAb binding (MFI)” value is 7560.

B5: the “mAb binding (MFI)” value worked out at 15000.

Regarding B6, the “mAb binding (MFI)” value amounted to 15700.

Turning to B3, the “mAb binding (MFI)” value worked out at 12300.

On to B4, for which the “mAb binding (MFI)” value is 595.

Another experiment addresses T1, SLAMF7. Kind of experiment: ELISA on coated SLAMF7-StrepTag. As to the method:
as §1, §2
(In general: In an ELISA, binding on a coated surface is turned into a signal by an enzyme label.)
In the case of B1, the binding result is listed as “no binding (tested: 150 ng IgG1 per well)”.

Consider B7, for which the binding result is given as “no binding (tested: 150 ng IgG1 per well)”.

Take B2: the binding result is reported as “no binding (tested: 150 ng IgG1 per well)”.

Consider B5, for which the binding result was “no binding (tested: 150 ng IgG1 per well)”.

On to B6, for which the binding result is reported as “no binding (tested: 150 ng IgG1 per well)”.

With B8, the binding result is on record as “no binding (tested: 150 ng IgG1 per well)”.

In the case of B3, the binding result is recorded as “no binding (tested: 150 ng IgG1 per well)”.

B9: the binding result is on record as “no binding (tested: 150 ng IgG1 per well)”.

As for B4, the binding result was “no binding (tested: 150 ng IgG1 per well)”.

The next experiment addresses T5, PTPRG, endogenous in H929 multiple …. Kind of experiment: flow cytometry, H929 + NT Green siRNA; None 1.35.
As to B1, the “Cells stained (%)” value is 97.2%.

For B2, the “Cells stained (%)” value amounted to 95.7%.

Take B5: the “Cells stained (%)” value amounted to 99.4%.

In the case of B6, the “Cells stained (%)” value is 99%.

Regarding B3, the “Cells stained (%)” value came out at 98.9%.

Regarding B4, the “Cells stained (%)” value came to 1.86%.

In the next experiment the target is T2, CADM1-His (Acro Biosystems). Kind of experiment: ELISA on coated CADM1-His. The protocol:
as §1, §2
As to B1, the binding result is recorded as “no binding (tested: 150 ng IgG1 per well)”.

Turning to B2, the binding result is listed as “no binding (tested: 150 ng IgG1 per well)”.

For B3, the binding result is recorded as “no binding (tested: 150 ng IgG1 per well)”.

As for B4, the binding result is listed as “no binding (tested: 150 ng IgG1 per well)”.

Another experiment has as its target T3, SELL (L-Selectin). Kind of experiment: ELISA on coated SELL-Fc-His. The protocol: as §1, §2
As for B1, the binding result was “no binding (tested: 150 ng IgG1 per well)”.

As to B7, the binding result was “no binding (tested: 150 ng IgG1 per well)”.

Turning to B2, the binding result is “no binding (tested: 150 ng IgG1 per well)”.

Turning to B5, the binding result is “no binding (tested: 150 ng IgG1 per well)”.

In the case of B6, the binding result is on record as “no binding (tested: 150 ng IgG1 per well)”.

Turning to B8, the binding result is reported as “no binding (tested: 150 ng IgG1 per well)”.

B3: the binding result is “no binding (tested: 150 ng IgG1 per well)”.

For B9, the binding result is on record as “no binding (tested: 150 ng IgG1 per well)”.

Consider B4, for which the binding result is recorded as “no binding (tested: 150 ng IgG1 per well)”.
